Experimental data from the DeepSol protein solubility set.

experiment: soluble on expression in E. coli; label from the status in PepcDB or PDB records

Sequence | soluble on expression in E. coli
MGSDKIHHHHHHMQKTLNTKKANLAMERAGLTQTAVAESLAVSKEAVSQWLSSKSFPRPNKLLQLGKLLGLPFDELVIKEDPFTPKVAFRKKAGTKTKDHHIEKAQEMGRFLRHLVAYLPFDTLEMPPVLKSPSCEYDYLCKVTAKVREDINVGTAECIDFSHLIRRFSELQAVVVPVMWGVKQRHENAVHIHLPDSQSTWVYLNLDTNIHDFKFWMAHELGHCLSPSLEGDNAEDFADAFAATLLYPNELAEKAYTSINAQPSPAAKIAHVVDLADQFTISPYTVLGQANKYALSTGRNEIKLSNSFHGAVTNFNKRYKNLSEALFGDAELDEHGKPSAKEYINKAETAFETPFFELLRKYLKEHDKGPGFVQTVLDMPLLDARSIHTELT | not soluble
MGSDKIHHHHHHMGNTQWQRLLQIEIHDKNGKNRVLLRADSGRLDRLEIHFTAPFSDSPNPSEVSVTIYNLNKKSIDFIKKGNPVYIHAGYAGTSNGVITSGTIAEVKPSVLNGVDRATTFTFLEGKDYSEQKEVNITFNNGTDAHTIINRVAREANIPLSEIKLKNNKIYGSGYTADGQAMMVLEEISKACDTSLYFKRGQLVIKNFRDGNKERYRLSPETGLINQPTKVESHDYTGWSVECLLQHKITTGTAVYIDSKNVKGNFYVKNGQHSYDGSRFVTTCEVVT | not soluble
MINETKYMRQQITNLIQIIDTIKYNTLMTDWNIQTHIYKFNQIVTNELNKFKGFETSYIINENQVSYYEIITLLNKRPLRQVDYGNKIQYLNFYHTELSNALFAIKFAHLEHHHHHH | not soluble
MSLILVYSTFPNEEKALEIGRKLLEKRLIACFNAFEIRSGYWWKGEIVQDKEWAAIFKTTEEKEKELYEELRKLHPYETPAIFTLKVENVLTEYMNWLRESVLEGGSHHHHHH | soluble
MGSDKIHHHHHHVSPSILGQGEVEQLLTGTYRSLQNDPGRDTWVLFDMRGENLINTYLSGSNDFVNNEIPSNNGTLLTMWRGYYKAIYNANTTLSILSNLEPSEKNTHIEAQARFLRAYAYYCLATRWDGVPIIKDNTLENVKRDKQSAVFNFIKEELSFCIDEGHLKPFGETSGAPFTVSLEAAQALMARLALTTGDMETAKNMAETLIANPKFKLSENYDNIFTTTNNSEIIFSFRNNTSEGGQNLYALFTTYNSPMKGSWFLCPSPESEKLFEDPADTRNNTCITTLESVSETYIIMNKFRDFTPLIVSRIAEMYLISAEAQGRNGLNRLNELRRSRGLNPYNNSDIASEEDYQKKVALERRKELYCEGFLFFDLIRTNKISEEVVSMNGKTNLYLPLPESEVQYNPNLNEYN | not soluble
MGSDKIHHHHHHMPTINSIQTTVNGVVKIVKPFNNDIAGEQFDPHVLQTLTAFKQPAILENDLAALRSGSLTPAIADPVGDAVTVQSRNITALNRTVSVEWLTPQNVINHTVLVYFHGGAFYGGVPGNNTVLLKLVAAKSHCEILNVDYSLAPEAPAPAGILDGLAIFQYLEQRDAETMITVAGDSAGANVIMAATNLNQQLGSNRINQQLLLYPVTAPNADHAGPLWDLAAFPIIDSQRAILTNYHDLFRQLDSIMTDYYVPENFDSHSPLISPLHQENFTMTPPTTIMVGEFDPFRPQAWAYAQRLAAADTATTFIQYQGLNHAFAPLVDQYWQSQDVAQVMAAALI | not soluble
RIEEVKERFVNLNRLFQELVGDFQAKSDQLVSVIQDMEKISENIMEELKKSGTNVDQIVERVKEASSQIGETLENIRSIEKLIQNIMRIARETNILALNATIEAARAGEAGKGFMIVANEVQNLSNETNEVTKQIVEKAREILESSQRSLENLEFMANLFETVGKTLQNMVRFMENIVKLLQEVRNSLDTSKESLSEKSAEIDSATKVLEETA | soluble
MGFEQLAELRDRLRAQAAQAKPAQTKSSAGRAKKREAVEPGVEAIWRLQRHFPLAFPKSPAAKVPLKQGILQDAQQHLELLGITAEQLKQAIATWCQGSRYWSCMVEDAPRLDLQGQVAGKVTAEQAVYARRQASRRQREQMREKRAKRAQAGGEAPAATEAPTPEAPATEASPEAN | not soluble
MFLTAVRRSSNVLKTFKPLYDRVLVERVAAETKTKGGIMLPEKSQGKVLEATVVSAGAGLRNEKGELVALTVKPGDRVLLPEYGGTKVVVEDKEYSIFRESDLLGVFH | not soluble
MTKIGINGFGRIGRNVFRAALNNSEVEVVAINDLTDAKTLAHLLKYDTVHGTLNAEVSANENSIVVNGKEIKVIAERDPAQLPWSDYGVEVVVESTGRFTKKSDAEKHLGGSVKKVIISAPASDEDITVVMGVNHEQYDAANHNVVSNASCTTNCLAPFAKVLNEKFGVKRGMMTTIHSYTNDQQILDLPHKDLRRARAAAENMIPTSTGAAKAVALVLPELKGKLNGGAVRVPTANVSLVDLVVELDKEVTVEEVNAAFKAAAEGELKGILGYSEEPLVSIDYNGCTASSTIDALSTMVMEGNMVKVLSWYDNETGYSNRVVDLAAYMTSKGL | soluble
GPGSMCSPIADNADMIVPSADTCCPNTVFERVLRCACIVMRVGDDPGYIWTPQRLGAGSFGTVTLAYRHEGDAVWRKTAVKRISLRKETRLSAVLEKVRCTGREVALCRRAGVSPHVVPMYKPWFDCREGVIALPMDAGDFSLEQYAVHCGFRFPPLALLSMCAQCARAVAHLHRRGVVHRDVKPDNFVVNVFDTVGGAGAGGDGDCGEARPPFVRILDFGLACGVEEVEQELKRCVGTPHYMAPETFSHLCDCDVPAACDVWSLGVTLFRLATGVFPVFDQDVTASWPPASASSARLGVPRLRSPWPRVVERCPAPW | not soluble
MGSDKIHHHHHHSSSDLKDLLRERIAAKYTIDDLKDTGKKIRKTAPIESLAAVSKIDRDPVQFINSVEQNLTKSLLPMRHSRMGASQAAFFRGTAELMAYDLQQGEKSGINLLIDGDAHLQNFGFYASPERNLLFDLNDFDEAQINSFEFDIKRLLTSVYLLGDQQGFDADKLDELVQTDASIYRKTLRDLFKVGALDRFYQSTEVNHLVQSIPGAEDSALLSKFVKKATKRNNDSVIKKYTTTIDGNMRFKDDPPSSVRLDKATYQAIFDGFTQYRKSTRPDILVLLSEYRITDIIHHSVGIGSFGTNCYLVLLSGLGGSHLVLQVKEALPPRPELIPNTERITLQQEVSQGQRIIASQMILQKASDPFLGWFNVGDKSYYVRQFRDMKGSVDLEELTFPEFQYYTQITTYLLAMAHAQTPQAAVVTGYLDKSFDSAVQRWSKWYLNQVKADYSAFMRAVQTHMLA | not soluble
MGSDKIHHHHHHMKRKITPELSSKDWKEFCSRFHFDNDKLPLIRAIYTAMLPLVDAFAYYSIKQDLPGVSLAHYAYGLVTLGNGVDELSELYLNHEQLEEAYIADCLSLMLLSNAYEQFAKAVEEESSLYAIELSFLGDEYPLELLPEIFEHVSPDGIHLTGSNMLKPLKTAALIIKLDSQKRKNIKELCNTCANCKNLSCPSRKAPGPKLPHTYGAMQIFNIRH | not soluble
VIGADVPRDSQRARVYAAEAFVRTLFDRVTAHGSPTVEFFGTQLTLPPEGRFGSVASVQRYVDDVLALPAVGQNWPTVSPVRVRARRAATAAHYENHGGTGTIAVPDRHTAGWAMRELVVLHEVAHHLCQVPPPHGPEFVATVCTLTELVMGPEVGHVFRVVYAQEGVR | soluble
MCPVENKWLKVGQKGAGPGARSSHAMTVVGNKVYCFGGELKPTIHIDNDLYVFDLETQEWSIAPATGEAPFPCFGVSMVTIGSTIYVYGGRDDKRRYNGLHSYDTETNEWKLLAPVEEGLPGRSYHSMAGDDRKVYVFGGVTAKGRVNTLHAYDVVDQKWVEYPAAGEACKGRGAPGLVVVEGRIWVLFGFDGNELGDIHCFDLASEQWKAVETTGDVPAARSVFPAVSYGKYIVIYGGEEEPHELMHMGAGKMSGEVYQLDTETLVWERIVCGNEEEKPSQRGWCAFTKAVKDGEEGLLVHGGNSPTNERLDDLVFWGFSHLNVN | soluble
MRIRIAHSPDSDDAFMFYPLVKGLIDTEGLEIEHVLADIETLNREALKGTYEVSAISFHAYPYVADKYAVLPSGGSIGEGYGPIVVAREELGTLKGKKIAVPGELTTAFLTLKLYEPDFEHVVIPFDRIIQAVLEGKVDAGLVIHEGQLSYKDYGLKKIVDLGEWWKEKYGLPLPLGCNVVRKDLGREVVKKIERLMRESVEYALKERKRALEYAINYARDLSEDLERTQKFVSMYVNERTVDYGEDGREAVRLLLRLGKERGIIKAEIPEKIFSDELF | soluble
MHIEFREFNPFDVWIWLKFSNVPSEREKQYVEEVFNSWFYLGKLGAFNAENLQVQDTGLDISYMDYDPSAYNKSFLALMHNMSEFEYEGEWGRCWFDLGTSDAIALDLLLNSLTQLSEEYVTIEILYIGGENSDWPVEDSETHANADSIYDY | not soluble
VSAASLSKSAPAEPQPGPPQPAAGPQALPAIGGLTPFSSVDWPGQLAAVVFIAGCPWRCHYCHNPHLQERARGLDWREVLDFLGRRRNLLDAVVFSGGEPLSEPRLPQLIDAARALGLRIGLHTGGIYPARFAEVLPRLDWVGLDIKTTAPRYDALTGRRGSAAPVDACLDLLLRSHCAFECRTTWHPDWLPEPQLLALAQSLCSRGVKHYAIQAYRSAPGTLATALPSEATQHALAACFSSFSCR | soluble
MSSTKQKALKKIAKCLELGNSANVNEAAQAIKMAHRLMLKYGLEKDDIEFIKMGKTQSIHLLPANVGSNILKIIRGINTRFGVEAVLLNHKGLKKVEFIGSADRAIFAAFAFDIVYREMNEQTGQFKNSFAGTGTGQLEVTKRVNSFLAGWIEGALEKLPVIAPDEDSANKINDYIDKEFKNIDRETFKQQLKEAMANITADYEKGLKKGRTISVNRPVAGAQAPKLLK | not soluble
MMNYRKADMKDISLLVSIRKRQLIDEGIEPNIDIDKELTRYFNNKLANNLLVEWIAEENNQIIATAAIAFIDFPPTYTNKTGRKGYITNMYTEPTSRGNGIATGMLDRLVNEAKERNIHKICLVASKLGRPVYKKYGFQDTDEWLELNLLEHHHHHH | soluble
MPYPFKLPDLGYPYEALEPHIDAKTMEIHHQKHHGAYVTNLNAALEKYPYLHGVEVEVLLRHLAALPQDIQTAVRNNGGGHLNHSLFWRLLTPGGAKEPVGELKKAIDEQFGGFQALKEKLTQAAMGRFGSGWAWLVKDPFGKLHVLSTPNQDNPVMEGFTPIVGIDVWEHAYYLKYQNRRADYLQAIWNVLNWDVAEEFFKKA | soluble
MGSDKIHHHHHHMSPQEYCQNKAAASGSSFYYSFLFLPKAKREAITALYAFCREVDDIADDVQDVNVAQTKLNWWRSEIINLFEGKPQHPVTMALQSPVRELKLKQQHFLEIINGMQMDLEQNRYRDFEELELYCYRVASVVGLLSASIFGYSNPQTLQYALDLGMAFQLTNITRDVGEDGRRGRIYLPLDEISRFGVSEQDILQGKASDNMRQLLEFQVERAERYYEKALAELPLEDRKQQRTGLIMASIYRTLLKEIKRDDIQVVLNARVSLTPIRKLWLAWLTWIRN | not soluble
MGSDKIHHHHHHMKVNTALGILAGKSSQFILKKLGRGTTLPGKIALKFDKHILDSLAKDYEVVVITGTNGKTLTTALTVGILQEAFGEITTNTSGANMITGITATFLSAKKNKKGKKIAVLEIDEASLARVTDFIKPSLIVFTNIFRDQMDRYGEIYTTYQMILDGAAKAPQATILANGDSPLFNSTNVINPVKYYGFATEEHEPRLAHYNTEGVLCPHCHQIIQYKLNTYANLGSYICNNCGFCRPELDYKLTDLKEITNTSSTFAIDGQDYKINIGGLYNIYNALAAVSVAAFFGVTPEKIKAGFDKSKAVFGRQETFKLGDKDCTLVLIKNPVGATQAIEMMKLAPYDFSLSVLLNANYADGIDTSWIWDADFEQITQMDIPQVFAGGVRSSEIARRLRVTGYPENQITETPKLEDIMALIEQSSSQHAYILATYTAMLEFRDLLAQRQAVGKEMK | not soluble
